Results reported in patent publication US20210403595 (published 2021).
Read-outs that look alike come from different tables or passages of the source. Values belong to the binder of their own block, whether it stands above or below them.

How the values were obtained:
[1] = target: human CD3 on Jurkat cells (human); assay: FACS
[2] = target: human CD3 epsilon/delta heterodimer, Fc-tagged (human); assay: SPR, 25C antibody-capture
[3] = target: human CD3 epsilon/delta heterodimer, Fc-tagged (human); assay: SPR, 25C antigen-capture
[4] = target: human CD3 on Jurkat cells (human); assay: FACS; remark: listed apart in the source
[5] = target: human PSMA, N-terminal 6xHis (soluble) (human); assay: SPR, 37C
Sequence of human PSMA, N-terminal 6xHis (soluble) (human) (A4UU12 whole entry): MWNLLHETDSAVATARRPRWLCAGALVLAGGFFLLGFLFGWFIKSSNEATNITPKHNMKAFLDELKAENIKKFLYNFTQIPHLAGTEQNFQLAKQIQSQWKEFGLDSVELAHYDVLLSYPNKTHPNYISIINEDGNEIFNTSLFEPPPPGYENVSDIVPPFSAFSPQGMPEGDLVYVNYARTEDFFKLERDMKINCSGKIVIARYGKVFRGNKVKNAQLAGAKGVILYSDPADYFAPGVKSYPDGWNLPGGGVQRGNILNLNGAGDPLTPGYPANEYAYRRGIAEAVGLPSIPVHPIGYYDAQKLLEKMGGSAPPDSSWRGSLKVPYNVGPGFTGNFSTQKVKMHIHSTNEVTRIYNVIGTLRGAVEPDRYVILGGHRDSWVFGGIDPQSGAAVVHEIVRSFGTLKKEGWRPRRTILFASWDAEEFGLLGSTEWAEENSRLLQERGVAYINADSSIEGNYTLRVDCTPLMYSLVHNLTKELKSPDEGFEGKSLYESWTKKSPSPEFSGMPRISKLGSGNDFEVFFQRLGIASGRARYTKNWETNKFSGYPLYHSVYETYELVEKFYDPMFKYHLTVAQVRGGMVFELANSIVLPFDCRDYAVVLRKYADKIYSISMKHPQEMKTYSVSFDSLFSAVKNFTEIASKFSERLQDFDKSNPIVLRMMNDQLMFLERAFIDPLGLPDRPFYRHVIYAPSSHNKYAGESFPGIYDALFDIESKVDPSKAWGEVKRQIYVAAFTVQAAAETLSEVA

human PSMA on cells = human PSMA on cells (human); assay: FACS, 22RV1
Sequence of human PSMA on cells (human) (A4UU12 whole entry): as above

[6] = target: T1, cynomolgus CD3 on T cells (cynomolgus monkey); assay: FACS
T1 chain: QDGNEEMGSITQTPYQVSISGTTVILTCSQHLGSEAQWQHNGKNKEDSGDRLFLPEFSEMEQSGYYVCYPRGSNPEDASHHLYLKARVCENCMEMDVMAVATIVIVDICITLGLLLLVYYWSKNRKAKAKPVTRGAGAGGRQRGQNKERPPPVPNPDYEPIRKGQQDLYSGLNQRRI

[7] = target: human CD3 epsilon/delta heterodimer, Fc-tagged (human); assay: SPR, 25C antigen-capture; remark: listed apart in the source
[8] = target: human CD3 on Jurkat cells (human); assay: FACS; remark: listed apart in the source

Sequence of human CD3 epsilon/delta heterodimer, Fc-tagged (human) (chain, as listed by the source mutant, chain 1 of 2): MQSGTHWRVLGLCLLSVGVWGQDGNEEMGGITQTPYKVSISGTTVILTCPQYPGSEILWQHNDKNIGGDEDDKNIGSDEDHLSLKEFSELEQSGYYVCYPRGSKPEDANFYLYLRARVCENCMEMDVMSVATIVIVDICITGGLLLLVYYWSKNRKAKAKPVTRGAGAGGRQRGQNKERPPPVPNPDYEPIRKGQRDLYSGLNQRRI
Sequence of human CD3 epsilon/delta heterodimer, Fc-tagged (human) (chain, as listed by the source mutant, chain 2 of 2): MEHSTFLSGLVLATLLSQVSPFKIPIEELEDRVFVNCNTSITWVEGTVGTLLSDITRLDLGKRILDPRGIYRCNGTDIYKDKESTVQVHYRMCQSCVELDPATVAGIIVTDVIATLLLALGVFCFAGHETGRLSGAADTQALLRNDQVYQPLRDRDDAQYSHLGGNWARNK
Sequence of human CD3 on Jurkat cells (human) (chain, as listed by the source, chain 1 of 2): as the sequence (chain, as listed by the source mutant, chain 1 of 2) above
Sequence of human CD3 on Jurkat cells (human) (chain, as listed by the source, chain 2 of 2): as the sequence (chain, as listed by the source mutant, chain 2 of 2) above

EC50 [1]: 1.5 nM | Kd [2]: 220 nM | Kd [3]: 10 nM
B1: H1H7232P (antibody, V domains shown)
VH: EVQLVESGGGLVHPGRSLRLSCAASGFTFDDYTMHWVRQAPGKGLEWVSDISWNSGSRGYADSVKGRFTISRDNAENSLYLQMNSLRAEDTALYYCAKDKSGYGHYYYYAMDVWGQGTTVTVSS
VL: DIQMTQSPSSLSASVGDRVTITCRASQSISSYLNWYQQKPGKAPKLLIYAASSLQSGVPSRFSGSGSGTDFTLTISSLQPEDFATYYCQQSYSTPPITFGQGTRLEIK

binding result [4]: no binding
B2: H2M2689N (antibody, V domains shown)
VH: QVQLVESGGGVVQPGRSLRLSCAASGFTFSRKGMHWVRQAPVKGLEWVAVISYDGSNKYYADSVKGRFTISRDNSKNTLYLQMNSLTAEDTAVYYCAKEGGHDYGGTFDYWGQGTLVTVSS
VL: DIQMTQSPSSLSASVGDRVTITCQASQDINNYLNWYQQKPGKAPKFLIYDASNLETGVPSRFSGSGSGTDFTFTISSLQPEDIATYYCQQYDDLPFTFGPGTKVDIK

Kd [5]: 14 nM
B3: H1H11835P2 (antibody, V domains shown)
VH: EVQLVESGGGLVQSGGSLRLSCEASGFTFSNYWMTWIRQGPGKGLEWVANIKPDGTENYYVDSVKGRFTISRDNARNSLYLQMTSLKAEDTAVYYCGRMIQFVINIWGQGTLVTVSS
VL: DIQMTQSPSSLSASVGDSVTITCRASQSINNYLNWYQQKPGKAPKLLIYTASSLLSGVPSRFSGSGSGTDFTLTISGLHPEDFATYFCQQSFSTPPITFGQGTRLDIK

EC50 (human PSMA on cells): 78.5 nM
B4: BSPSMA/CD3-001 PSMA arm (antibody, V domains shown)
VH: QVQLVESGGGVVQPGRSLRLSCAASGFTFITYGMHWVRQAPGKGLEWVAIIYYDESNKYYADSVKGRFTISRDISKNTLYLQMNGLRAEDTAVYYCARAPRVAVEEDYSYYYGMDVWGQGTTVTVSS
VL: EIVMTQSPATLSVSPGERAILSCRASQNINSNLAWYQQKPGQAPRLLIYGASTRATGVPARFSGSGSGTEFTLTIRSLQSEDFAVYYCQQYYNWPITFGHGTRLEIK

EC50 [6]: 5.66 nM
B5: H1H2690N (antibody, V domains shown)
VH: EVQLVESGGGLVQPGRSLRLSCAASGFTFDDYTMHWVRQAPGKGLEWVSGISWNSGSIGYADSVKGRFTISRDNAKKSLYLQMNSLRAEDTALYYCAKDNSGYGHYYYGMDVWGQGTTVTVAS
VL: EIVMTQSPATLSVSPGERATLSCRASQSVSSNLAWYQQKPGQAPRLLIYGASTRATGIPARFSGSGSGTEFTLTISSLQSEDFAVYYCQHYINWPLTFGGGTKVEIK

binding result [7]: no binding | binding result [8]: no binding
B6: H1H7279P (antibody, V domains shown)
VH: EVQLVESGGGLVKPGGSLRISCAASGFSFINAWMNWVRQAPGKGLEWVGRIKSISDGGTTDYAASVKGRFTISREDSKNMLFLEMNSLKTEDTAVFYCTTEVARTPNYWGRGTLVTVSS
VL: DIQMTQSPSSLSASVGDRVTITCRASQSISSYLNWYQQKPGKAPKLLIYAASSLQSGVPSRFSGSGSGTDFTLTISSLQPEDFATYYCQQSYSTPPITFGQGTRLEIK
